According to the supplement of paper PMC7877785:
± gives the uncertainty stated by the source.

Assay: self-splicing fitness, log relative to wild type (ln ratio); higher = more splicing; Tetrahymena group I intron in knt gene, E. coli kanamycin selection, DiMSum; sequences stand for … in CUCUCU…GGAGGGAAAAGUUAUCAGGCAUGCACCUGGUAGCUAGUCUUUAAACCAAUAGAUUGCAUCGGUUUAAAAGGCAAGACCGUCAAAUUGCGGGAAAGGGGUCAACAGCCGUUCAGUACCAAGUCUCAGGGGAAACUUUGAGAUGGCCUUGCAAAGGGUAUGGUAAUAAGCUGACGGACAUGGUCCUAACCACGCAGCCAAGUCCUAAGUCAACAGAUCUUCUGUUGAUAUGGAUGCAGUUCACAGACUAAAUGUCGGUCGGGGAAGAUGUAUUCUUCUCAUAAGAUAUAGUCGGACCUCUCCUUAAUGGGAGCUAGCGGAUGAAGUGAUGCAACACUGGAGCCGCUGGGAACUAAUUUGUAUGCGAAAGUAUAUUGAUUAGUUUUGGAGUACUCGUGGUCG
How it was run: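 Pooled colonies went to amplicon sequencing on an Illumina HiSeq 2500 after six replicate transformations. The plates were LB agar with 100 μg/mL carbenicillin, 50 μM IPTG and 0.2% rhamnose, with or without 25 μg/mL kanamycin, incubated overnight at 37°C or 30°C. The E. coli BL21(DE3) library had all eight P1ex-region intron nucleotides randomised, the intron placed in the knt kanamycin-resistance gene on pET-22b(+). DiMSum fitness is the error-weighted combination of replicate fold changes, kanamycin against none, normalised to wild type.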

| Sequence | self-splicing fitness (ln) (30 °C) | self-splicing fitness (ln) (37 °C) |
| --- | --- | --- |
| UGUAAGCAAUAUUACGUACG | -0.346 ± 0.057 | -0.333 ± 0.067 |
| UGUAAGCAAUAUUACGUAGU | -3.01 ± 0.21 | -0.923 ± 0.18 |
| UGUAAGCAAUAUUACGUAUG | -1.11 ± 0.093 | -0.727 ± 0.12 |
| UGUCAGCAAUAUUACGAAAC | – | -0.978 ± 0.25 |
| UGUCAGCAAUAUUACGAAGA | -0.706 ± 0.11 | -0.132 ± 0.11 |
| UGUCAGCAAUAUUACGACAA | -1.02 ± 0.097 | -0.118 ± 0.1 |
| UGUCAGCAAUAUUACGACCG | -0.0146 ± 0.18 | 0.122 ± 0.25 |
| UGUCAGCAAUAUUACGAGGA | -2.46 ± 0.22 | -0.886 ± 0.15 |
| UGUCAGCAAUAUUACGAGGG | -3.72 ± 0.2 | -1.37 ± 0.14 |
| UGUCAGCAAUAUUACGAGUG | -1.07 ± 0.085 | -0.261 ± 0.094 |
| UGUCAGCAAUAUUACGAUUC | -1.84 ± 0.11 | -0.335 ± 0.13 |
| UGUCAGCAAUAUUACGCAAC | -2.59 ± 0.33 | -1.26 ± 0.28 |
| UGUCAGCAAUAUUACGCACG | -1.06 ± 0.12 | -0.829 ± 0.13 |
| UGUCAGCAAUAUUACGCCAA | -0.858 ± 0.13 | -0.585 ± 0.13 |
| UGUCAGCAAUAUUACGGAAA | -1.11 ± 0.088 | -0.145 ± 0.086 |
| UGUCAGCAAUAUUACGGAAG | -2.37 ± 0.14 | -0.569 ± 0.15 |
| UGUCAGCAAUAUUACGGCUU | -0.428 ± 0.12 | -0.319 ± 0.17 |
| UGUCAGCAAUAUUACGGGGU | -2.91 ± 0.18 | -2.49 ± 0.23 |
| UGUCAGCAAUAUUACGGUGC | -3.51 ± 0.43 | -2.74 ± 0.38 |
| UGUCAGCAAUAUUACGUAGA | -0.492 ± 0.057 | -0.604 ± 0.081 |

| Sequence | self-splicing fitness (ln) (30 °C) | self-splicing fitness (ln) (37 °C) |
| --- | --- | --- |
| UGUCAGCAAUAUUACGUCGC | -1.14 ± 0.25 | – |
| UGUCAGCAAUAUUACGUGUC | – | -2.37 ± 0.21 |
| UGUCAGCAAUAUUACGUUCA | -0.292 ± 0.1 | -0.052 ± 0.14 |
| UGUGAGCAAUAUUACGAAAA | -1.47 ± 0.35 | -1.31 ± 0.46 |
| UGUGAGCAAUAUUACGAACG | -0.83 ± 0.075 | 0.261 ± 0.086 |
| UGUGAGCAAUAUUACGAAGA | -2.48 ± 0.37 | – |
| UGUGAGCAAUAUUACGAAGC | -2.81 ± 0.34 | -2.08 ± 0.47 |
| UGUGAGCAAUAUUACGAUAU | -2.31 ± 0.22 | -1.66 ± 0.37 |
| UGUGAGCAAUAUUACGAUGA | -2.75 ± 0.17 | -2.21 ± 0.17 |
| UGUGAGCAAUAUUACGAUUA | -1.17 ± 0.22 | -1.53 ± 0.2 |
| UGUGAGCAAUAUUACGCAGU | – | -1.74 ± 0.26 |
| UGUGAGCAAUAUUACGCCGU | – | -1.71 ± 0.47 |
| UGUGAGCAAUAUUACGCGCA | -1.34 ± 0.44 | -0.203 ± 0.48 |
| UGUGAGCAAUAUUACGCGGU | -3.67 ± 0.37 | -0.807 ± 0.33 |
| UGUGAGCAAUAUUACGCUUC | -2.97 ± 0.39 | – |
| UGUGAGCAAUAUUACGGACG | -0.792 ± 0.12 | -0.0879 ± 0.18 |
| UGUGAGCAAUAUUACGGUAU | -3.87 ± 0.34 | – |
| UGUGAGCAAUAUUACGUAAC | -3.16 ± 0.28 | -2.25 ± 0.38 |
| UGUGAGCAAUAUUACGUAUA | -3.5 ± 0.4 | -2.03 ± 0.21 |
| UGUGAGCAAUAUUACGUCCG | -0.363 ± 0.12 | -0.0626 ± 0.17 |
